In FireProtDB (doi:10.1016/s0022-2836(03)00043-3):

B1: Cyclin-dependent kinase inhibitor 2A, P42771 (parent)
chain: MEPAAGSSMEPSADWLATAAARGRVEEVRALLEAGALPNAPNSYGRRPIQVMMMGSARVAELLLLHGAEPNCADPATLTRPVHDAAREGFLDTLVVLHRAGARLDVRDAWGRLPVDLAEELGHRDVARYLRAAAGGTRGSNHARIDAAEGPSDIPD

Variants of: B1
Conditions: Homo sapiens, pH 8.5, CD, Tris 10 mM, reversible: yes, structure 1A5E, whole UniProt chain shown; for Tm / change of melting temperature, mutant - wild type (higher = more stable): Thermal; for ddG of mutation (higher = less stable) / denaturant m value / denaturant midpoint (higher = more stable) / unfolding free energy: 20 °C, Urea

Variant	Tm [°C]	change of melting temperature, mutant - wild type (higher = more stable) [°C]	ddG of mutation (higher = less stable) [kcal/mol]	denaturant m value [kcal/mol/M]	denaturant midpoint (higher = more stable) [M]	unfolding free energy [kcal/mol]
L65K	47.2	1.2	–	–	–	–
W15D	–	–	-0.17	1.74	2.1	3.52
W15D L37S L121R	–	–	-1.42	1.56	2.8	4.77
L37S	50.3	4.3	-0.71	1.82	2.4	4.05
R124D	45.6	-0.4	–	–	–	–
V95K	47	1	–	–	–	–
T18R	45	-1	–	–	–	–
A73E	46.2	0.2	–	–	–	–
R128E	47.6	1.6	–	–	–	–
L121R	50.4	4.4	-0.66	1.61	2.4	4
